Data published in patent publication US20210380707A1 (published 2021).
Residue numbers refer to the chain shown, from its start.

T1: human CD70 (human, UniProt P32970 1-193)
T1 construct: Endogenous CD70 in FFPE cells and tissue sections, detected by IHC; also called CD70 antigen
T1 sequence: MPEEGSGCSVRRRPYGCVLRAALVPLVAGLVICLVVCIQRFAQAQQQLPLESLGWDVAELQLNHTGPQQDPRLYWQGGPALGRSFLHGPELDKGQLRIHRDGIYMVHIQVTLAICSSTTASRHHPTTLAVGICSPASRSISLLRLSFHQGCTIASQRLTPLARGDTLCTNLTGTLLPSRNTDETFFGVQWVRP

B1: 3H11D12E7 (antibody, V domains shown)
VH: QIQLVQSGPELKKPGETVKISCKASGYTFTDYSMHWVKQAPGKGLKWMGWINTETGEPTYADDFKGRFAFSLETSASTAYLQINNLKNDDTATYFCARSFYRYDWYFDVWGAGTTVTVSS
VL: QIVLTQSPAIMSASPGEKVTITCSASSSVSFMHWFQQKPGTSPKLWIYSTSNLASGVPARFSGSGSGTSYSLTISRMEAEDAATYYCQQRTSFPPTFGGGTNLEIK
notes: Mouse IgG1, Kappa; Only variable domains are printed; also called recombinantly expressed 3H11D12E7
B2: 4E6G9 (antibody, V domains shown)
VH: QIQLVQSGPELKKAGETVKISCKASGYTFAAYSMHWVKQAPGKGLKWMGWINTETGEPTYADDFKGRFAFSLETSASTAYLQINNLKNEDTATYFCTRDDYDGGRFSYWYFAVWGAGTTVTVSS
VL: DIQMTQSPSSLSASLGGKVTITCKASQDINKYIAWYQHRPGKGPRLLIRYTSTLQPGIPSRFSGSGSGRDYSFSINNLEPEDIATYYCLQYDNLLTFGGGTKLEIK
notes: Mouse IgG1, Kappa; Only variable domains are printed; also called 4E6G9 antibody (Ms IgG1, kappa); recombinant antibody 4E6G9
B3: 16D7C8 (antibody, IgG3, V domains shown)
VH: QVQLQQSGPELVKPGASVRISCKASGYTFTSFYIHWVKQRPGQGLEWIGWISPINININYNEKFKGKATLTADKSSSTVYMQLSSLTSEDSAVYFCEGTSENFDVWGAGTTVTVSS
VL: DVLMTQIPLSLPVSLGDQASISCRSTQNIVHSNGNTYLEWYLQKPGQSPKLLIYKVSNRFSGVPDRFRGSGSGTEFTLKITRVEADDLGVYYCFQGSHVPFTFGAGTKLELK
notes: Mouse hybridoma antibody, IgG3, Kappa; Only variable domains are printed
B4: 18F8A8 (antibody, IgG1, V domains shown)
VH: QVTLKESGPGILQPSQTLSLTCSFSGFSLSTSNMGVAWIRQPLGKGLEWLLYILWNDTKYYNPALKSRLSISKDTYNNQVFLKIVNVDTADTATYYCARIRRDYALDYWGQGTSVTVSS
VL: DIVMSQSPSSLAVSVGEKVTMNCKSSQSLLYSNNQKNYLAWYQQKPGQSPKLLIYWASTRESGVPDRFTGSGSGTDFTLTISSVKAEDLAVYYCQQYYIYPLAFGGGTKLEIK
notes: Mouse hybridoma antibody, IgG1, Kappa; Only variable domains are printed
B5: 19H7E4 (antibody, IgG1, V domains shown)
VH: QVTLKESGPGILQPSQTLSLTCSFSGFSLSTSNVGVGWIRQPSGKGLEWLLHILWNDGKYYNPALKSRLTISKDTSTNQVFLKIADVDTADSATYYCARLRRDYGMDYWGQGTSVTVSS
VL: B4 VL with N22S, N33Y, I99T, L102Y
notes: as for B4
B6: 11G12B6 (antibody, V domains shown)
VH: QVTLKESGPGILKPSQTLSLTCSFSGFSLSTSGLAVGWIRQPSGKGLEWLSHIWWNDDKYYNPSLKNQLTISKDTSRNQVFLKIISVDTADTATYYCSAYFGGKNYWGQGTALTVSS
VL: DIVMTQSPSSLTVTAGEKVTMSCKSSQSLLNSGNQKNYLTWYQQKPGQPPKLLVYWASTRESGVPDRFTGSGSGTDFTLTISTVQAEDLAVYYCQNDYSYPLTFGAGTKLELK
notes: as for B4

Experiments:
human CD70 [1] = target: T1, human CD70; test: IHC Leica BOND, ER2, FFPE HH cells, 5 µg/mL
Method: (§1) The following IHC evaluation was performed using a Leica BOND™ RX autostainer and BOND™ Polymer Refine Detection kit. These antibodies were tested at 5 μg/mL or 8 μg/mL concentration on a panel of CD70 positive cell line controls and a renal clear cell carcinoma tissue microarray (RCC TMA). All incubation steps were performed at room temperature with wash cycles in between each step unless otherwise stated. Briefly, pretreatment of FFPE slides was performed using the Bake and Dewax function. It was followed by a HIER step with Epitope Retrieval solution 2 (ER2) for 20 minutes at 100° C. Next, tissues were incubated with primary antibody for 60 minutes, followed by incubation with post primary and then polymer reagents for 15 minutes each. The antibody-antigen binding was visualized by brown DAB Refine stain for 10 minutes and counter-stained blue with Hematoxylin for 5 minutes. […] Upon completion of IHC staining experiment, stained tissues were scan using a Pannoramic MIDI II brightfield whole slide scanner and staining was visualized using CaseViewer software.

human CD70 [2] = target: T1, human CD70; test: IHC Leica BOND, ER2, FFPE ACHN cells, 5 µg/mL
Method: as §1

human CD70 [3] = target: T1, human CD70; test: IHC Leica BOND, ER2, FFPE ACHN cells, 8 µg/mL
Method: as §1

Row | Binder | binding result (human CD70 [2]) | further results
1 | B1 |  | binding result (human CD70 [1]): binds
2 | B2 | binds | 
3 | B3 | binds | 
4 | B4 | binds | 
5 | B5 | binds | 
6 | B6 |  | binding result (human CD70 [3]): binds
